Results taken from patent US20250188189A1 (published 2025).
Where a chain is given by its changes, count along the chain named.

T1: plasma-derived human activated protein C (APC) (UniProt P04070 43-461)
T1 chain: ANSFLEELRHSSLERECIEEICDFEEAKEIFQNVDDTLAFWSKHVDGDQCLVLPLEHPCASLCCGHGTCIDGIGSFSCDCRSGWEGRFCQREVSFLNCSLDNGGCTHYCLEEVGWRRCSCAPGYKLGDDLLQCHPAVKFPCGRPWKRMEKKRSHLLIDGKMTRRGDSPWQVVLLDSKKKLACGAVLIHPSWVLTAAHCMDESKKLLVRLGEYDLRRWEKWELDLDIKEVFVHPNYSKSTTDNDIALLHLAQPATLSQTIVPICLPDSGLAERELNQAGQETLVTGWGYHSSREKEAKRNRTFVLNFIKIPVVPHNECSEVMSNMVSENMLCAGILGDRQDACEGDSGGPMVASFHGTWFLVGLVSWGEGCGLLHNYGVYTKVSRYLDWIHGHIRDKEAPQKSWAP

B1: TPP-24740 (antibody, V domains shown)
VH: EVQLVESGGGLVQPGGSLRLSCAASGFTFSNYYMSWVRQAPGKGLEWVGDIRLKSNNYEKHYAESVKGRFTISRDDSKNSLYLQMNSLKTEDTAVYYCAREGDYFDYWGQGTLVTVSS
B2: TPP-26926 (antibody, V domains shown)
VH: B1 VH
VL: DIVLTQSPASLAVSPGQRATITCKASQSVSSFGATFMHWYQQKPGQPPKLLIYLASNRASGVPDRFSGSGSGTDFTLKISRVEAEDVGVYYCQQNNEDPYTFGQGTKLEIKR
B3: TPP-26934 (antibody, V domains shown)
VH: B1 VH with M34I, S35N
VL: EIVLTQSPGTLSLSPGERATLSCRASQSVSSFGATFMHWYQQKPGQPPKLLIYLASNRASGVPDRFSGSGSGTDFTLTINPVEADDTANYYCQQNNEDPYTFGQGTKLEIKR
B4: TPP-24744 (antibody, V domains shown)
VH: B1 VH with M34I, S35N
B5: TPP-24727 (antibody, V domains shown)
VH: B1 VH with M34L, S35N
VL: DIVLTQSPASLAVSPGQRATITCKASESVDSFGATFMHWYQQKPGQPPKLLIYLASNLESGVPARFSGSGSGTDFTLTINPVEADDTANYYCQQNNEDPYTFGQGTKLEIKR
B6: TPP-26924 (antibody, V domains shown)
VH: B1 VH
VL: B5 VL with E27Q, D30S, Q41L, P47S, K49Q, L58R, E59A, A64D
B7: TPP-26920 (antibody, V domains shown)
VH: B1 VH
VL: B3 VL with Q41L, P47S, K49Q, T78K, N80S, P81R, D85E, T87V, A88G, N89V
B8: TPP-24738 (antibody, V domains shown)
VH: EVQLVESGGGLVQPGGSLRLSCAASGFTFSNYYMNWVRQAPGKGLEWVGRIKSKTDGGTTDYAAPVKGRFTISRDDSKNSLYLQMNSLKTEDTAVYYCAREGDYFDYWGQGTLVTVSS
B9: TPP-24750 (antibody, V domains shown)
VH: B8 VH with M34I, N35S
B10: TPP-24766 (antibody, V domains shown)
VH: B8 VH with Y32A, N35S
B11: TPP-26882 (antibody, V domains shown)
VH: B8 VH
VL: B3 VL
B12: TPP-26870 (antibody, V domains shown)
VH: EVQLVESGGGLVQPGGSLRLSCAASGFTFSNYYMNWVRQAPGKGLEWVSYISSSSSTIYYADSVKGRFTISRDDSKNSLYLQMNSLKTEDTAVYYCAREGDYFDYWGQGTLVTVSS
VL: B3 VL with T78K, N80S, P81R, D85E, T87V, A88G, N89V
B13: TPP-24777 (antibody, V domains shown)
VH: B12 VH with N31S, M34L
B14: TPP-26862 (antibody, V domains shown)
VH: B12 VH
VL: DIVMTQSPLSLPVTPGEPASISCRSSESVDSFGATFMHWYQQKPGQPPKLLIYLASNRASGVPDRFSGSGSGTDFTLKISRVEAEDVGVYYCQQNNEDPYTFGQGTKLEIKR
B15: TPP-26863 (antibody, V domains shown)
VH: B12 VH
VL: B14 VL with Q41L, P47S, K49Q
B16: TPP-26894 (antibody, V domains shown)
VH: EVQLVESGGGLVQPGGSLRLSCAASGFTFSNYYMNWVRQAPGQGLEWMGRIIPILGIANYAQKFQGRFTISRDDSKNSLYLQMNSLKTEDTAVYYCAREGDYFDYWGQGTLVTVSS
VL: B3 VL with Q41L, P47S, K49Q, T78K, N80S, P81R, D85E, T87V, A88G, N89V
B17: TPP-24737 (antibody, V domains shown)
VH: B12 VH
B18: TPP-26874 (antibody, V domains shown)
VH: B12 VH
VL: B2 VL
B19: TPP-26872 (antibody, V domains shown)
VH: B12 VH
VL: B5 VL with E27Q, D30S, Q41L, P47S, K49Q, L58R, E59A, A64D
B20: TPP-26869 (antibody, V domains shown)
VH: B12 VH
VL: B3 VL
B21: TPP-24745 (antibody, V domains shown)
VH: B12 VH with M34I
B22: TPP-26864 (antibody, V domains shown)
VH: B12 VH
VL: EIVLTQSPGTLSLSPGERATLSCRASESVDSFGATFMHWYLQKPGQSPQLLIYLASNRASGVPDRFSGSGSGTDFTLKISRVEAEDVGVYYCQQNNEDPYTFGQGTKLEIKR
B23: hAPC (enzyme)
chain: T1 chain
B24: TPP-24739 (antibody, V domains shown)
VH: B16 VH
B25: TPP-24743 (antibody, V domains shown)
VH: B16 VH with N35S

Legend:
[1] = biological target: T1, plasma-derived human activated protein …; assay: SPR
[2] = biological target: T1, plasma-derived human activated protein …; assay: SPR
[3] = biological target: T1, plasma-derived human activated protein …; assay: SPR
[4] = biological target: T1, plasma-derived human activated protein …; assay: SPR; head prints nM; kd/ka gives M
TPP-29862 = assay: SPR; head prints nM; kd/ka gives M

Row | Binder | Kd [1] | Kd [2] | other results
1 | B1 | 60.5 nM | – | –
2 | B2 | – | 30.5 nM | –
3 | B3 | – | 19.8 nM | –
4 | B4 | 22.8 nM | – | –
5 | B5 | 44.8 nM | 18.7 nM | Kd [3]: 44.8 nM
6 | B6 | – | 27.5 nM | –
7 | B7 | – | 28.1 nM | –
8 | B8 | 1.81 nM | – | –
9 | B9 | 13200 nM | – | –
10 | B10 | 29700 nM | – | –
11 | B11 | – | 169 nM | –
12 | B12 | – | 12.9 nM | Kd [4]: 40 nM
13 | B13 | 31.4 nM | – | –
14 | B14 | – | 13.5 nM | –
15 | B15 | – | 11.2 nM | –
16 | B16 | – | 142 nM | –
17 | B17 | 12.5 nM | – | –
18 | B18 | – | 13.2 nM | –
19 | B19 | – | 12.8 nM | –
20 | B20 | – | 13.5 nM | –
21 | B21 | 76.4 nM | – | –
22 | B22 | – | 8.79 nM | –
23 | B23 | – | – | Kd (TPP-29862): 11 nM
24 | B24 | 0.737 nM | – | –
25 | B25 | 0.174 nM | – | –
